According to paper PMC11742315, “Identification of a staphylococcal dipeptidase involved in the production of human body odor” (The Journal of Biological Chemistry, 2024):

Columns and labels:
Assay in all cases: purified protein
[1] = tested on: CCCC(C)(CCO)SC[C@H](N)C(=O)NCC(=O)O; settings: Mn2+-bound enzyme; 0.1 M Tris-HCl (pH 80 [sic]); coupled with ShPatB
[2] = tested on: N[C@@H](CS)C(=O)NCC(=O)O; settings: Mn2+-bound enzyme, 50 mM potassium phosphate, 200 mM NaCl, 37 °C
[3] = substrate: CCCC(C)(CCO)SC[C@H](N)C(=O)NCC(=O)O; settings: 0.1 M Tris-HCl (pH 80 [sic]), coupled with ShPatB

## ShPepV (Staphylococcus hominis)
[1]
  Km: 1290 ± 40 µM
  kcat: 3.41 ± 0.07 s⁻¹
  kcat/Km: 2640 ± 100 M⁻¹ s⁻¹
[2]
  Km: 2190 ± 220 µM
  kcat: 405 ± 23.6 s⁻¹
  kcat/Km: 186000 ± 21800 M⁻¹ s⁻¹

B1: CgTpdA (Corynebacterium glaucum) (protein)
chain: MSNDNAVNSAVTSTDFTFSPNRERIFQELAELISHYSPHSMPEHAATHEEAAKWVTAKLEELGLDVTRHPTVDDADTIIGVKEPVGDAPTVLLYSHYDVVPAQNPAVWTNDPLELDERGGRWYGRGAADCKGNVIMHLAALRMVQENGGTDLGIKVVVEGSEELGGEDGLGKLIDANPELFTADVIFIGDGGNVAVGIPTLTTHLRGGAQLRIKVDTLEGPVHSGGWGGAAPDAAHALIRISDSFFDEHGRTTIEGVDTTAKWEGDPYDRETFRKDARVLDGVQLLGTVDDEPADMVWARPAITVIGFTSVPVKDATNIVNSTAEAQFNLRVPAPQSAAEVAKKVEEQIYARAPWGAKVEVSVTGVNEPFSTDPNGPAVQHFGKCMQDAYGAERLTVVGTGGSIPLTVTLQKHFPDAEFALYGVADPAANIHGIDESVDPTEIEHVAIAEATFLLTYGK
[3]
  Km: 480 ± 30 µM

B2: SaPepV (Staphylococcus aureus subsp. aureus USA300) (protein)
chain: MWKEKVQQYEDQIINDLKGLLAIESVRDDAKASEDAPVGPGPRKALDYMYEIAHRDGFTTHDVDHIAGRIEAGKGNDVLGILCHVDVVPAGDGWDSNPFEPVVTEDAIIARGTLDDKGPTIAAYYAIKILEDMNVDWKKRIHMIIGTDEESDWKCTDRYFKTEEMPTLGFAPDAEFPCIHGEKGITTFDLVQNKLTEDQDEPDYELITFKSGERYNMVPDHAEARVLVKENMTDVIQDFEYFLEQNHLQGDSTVDSGILVLTVEGKAVHGMDPSIGVNAGLYLLKFLASLNLDNNAQAFVAFSNRYLFNSDFGEKMGMKFHTDVMGDVTTNIGVITYDNENAGLFGINLRYPEGFEFEKAMDRFANEIQQYGFEVKLGKVQPPHYVDKNDPFVQKLVTAYRNQTNDMTEPYTIGGGTYARNLDKGVAFGAMFSDSEDLMHQKNEYITKKQLFNATSIYLEAIYSLCVEE
[3]; Mn2+-bound enzyme
  Km: 3340 ± 340 µM
